Our source for the Biacore Relative RUmax values is US20070243194A1.

Assay [1] concerns the target hIGF-1R-Fc mutant SD008 (S258F) (human) (UniProt P08069). Kind of assay: SPR, Fab on receptor-Fc held on M13-C06 chip. (In general: In SPR one partner is held on a chip, and binding of the other changes the refractive index at the surface.)
For assay [2], the target named is hIGF-1R-Fc mutant SD019 (A739W_I741F) (human) (UniProt P08069). The assay is described as follows: SPR, Fab on receptor-Fc held on M13-C06 chip.
Chain of hIGF-1R-Fc mutant SD019 (A739W_I741F) (human) (P08069 31-933, stated change not applied): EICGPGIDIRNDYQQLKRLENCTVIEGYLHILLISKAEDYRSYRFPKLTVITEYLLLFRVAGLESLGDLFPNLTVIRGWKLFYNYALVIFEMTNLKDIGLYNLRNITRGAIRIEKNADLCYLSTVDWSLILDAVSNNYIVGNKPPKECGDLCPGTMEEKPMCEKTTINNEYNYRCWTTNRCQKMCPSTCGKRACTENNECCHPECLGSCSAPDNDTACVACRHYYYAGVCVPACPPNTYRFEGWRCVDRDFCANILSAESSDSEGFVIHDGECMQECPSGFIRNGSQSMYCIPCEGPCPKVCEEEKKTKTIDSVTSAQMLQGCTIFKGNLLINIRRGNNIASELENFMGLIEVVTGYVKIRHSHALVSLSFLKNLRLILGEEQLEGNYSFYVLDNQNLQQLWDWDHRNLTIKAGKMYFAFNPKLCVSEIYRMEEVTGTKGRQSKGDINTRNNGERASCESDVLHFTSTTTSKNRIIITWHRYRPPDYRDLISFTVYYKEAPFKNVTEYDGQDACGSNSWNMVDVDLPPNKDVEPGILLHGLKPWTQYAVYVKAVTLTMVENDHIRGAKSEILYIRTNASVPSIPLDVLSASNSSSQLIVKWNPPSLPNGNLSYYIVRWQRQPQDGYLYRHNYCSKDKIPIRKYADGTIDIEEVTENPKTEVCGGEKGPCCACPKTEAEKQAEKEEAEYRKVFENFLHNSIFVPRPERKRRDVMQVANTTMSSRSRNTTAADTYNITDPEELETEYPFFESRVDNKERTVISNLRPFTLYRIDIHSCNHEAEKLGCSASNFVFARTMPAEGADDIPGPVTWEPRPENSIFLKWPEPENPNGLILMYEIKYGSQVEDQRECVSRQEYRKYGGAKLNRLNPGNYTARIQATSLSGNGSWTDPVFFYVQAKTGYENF

Chain of hIGF-1R-Fc mutant SD008 (S258F) (human) (P08069 31-933, stated change not applied): as above

B1: M13-C06 Fab (Fab, V domains shown)
VH: EVQLLESGGGLVQPGGSLRLSCAASGFTFSIYRMQWVRQAPGKGLEWVSGISPSGGTTWYADSVKGRFTISRDNSKNTLYLQMNSLRAEDTAVYYCARWSGGSGYAFDIWGQGTMVTVSS
VL: DIQMTQSPLSLSASVGDRVTITCQASRDIRNYLNWYQQKPGKAPKLLIYDASSLQTGVPSRFGGSGSGTDFSFTIGSLQPEDIATYYCQQFDSLPHTFGQGTKLEIK
In the case of B1, the Biacore Relative RUmax was determined as 1.5 in assay [1] and 1.9 in assay [2].
